The data set can be described thus: soluble on expression in E. coli; label from the status in PepcDB or PDB records.
Take “SNAQDVPVTQVMTPRPVVFRVDATMTINEFLDKHKDTPFSRPLVYSEQKDNIIGFVHRLELFKMQQSGSGQKQLGAVMRPIQVVLNNTALPKVFDQMMTHRLQLALVVDEYGTVLGLVTLEDIFEHLVGE”: the “soluble on expression in E. coli” value was “soluble”.

Take “MAHHHHHHMRGQRSGKFAEYTATYAILKRIGLHQTVLIEKRDASVGYGVYVRDACDSGTPLLVVPSRHAFSLSTVQKLGARVRQEDLMQSPQLEILNRGVLSRLLGCTAGEWISLAWRLAIEHQRSLSPWWGWLNVLPRMQDFRTMEDESGRQCRLHRVQLLPYFIEVQGSMQEEICSAYEVLSEKNLMPSPNHFRWAVDVILTRSHRLPACWTNGEGSSVELGIIPFVDLVNGDDGGERRRNARVEVAFEVEELPRWYRDEFLQESERRHVNGEEALRRLLEEHFFALVALERDLTASEEVIMEYELVPWVTGALSHEDDLLLGRLLRYRF”: the “soluble on expression in E. coli” value is “not soluble”.

“MGSDKIHHHHHHMFEIKTDDFEGIEIVKLINTVSGEYASIIPSFGGNIHELVLQKHNILHDVIYTNKNKEELSGFYSNLYRGAKLNPFSNRIDKGSYIFENISYSIPLNDAGIHALHGFVWNKPFSITASKTSFEFATLTLSYTHPKDSADFPFSYTLLVTYKLCIEGLMVTTQITNTSPTAIPMGDGWHPYLTLGSSINTLKLQIPSVQKIETTDTLIPTGKIIEDISFFEPALLGERELDNAFVLDSSVEKAETLLFDEEEDLTLVVWQQTDTYPFVHVYTPSDRMSVAIEPCSAIPDAFNRNMIETTLKPAEKKSYVFGIQLR”: the “soluble on expression in E. coli” value is on record as “not soluble”.

Consider “GAKSIYEFQVNAADGKPYDLSQHKGHPLLIYNVASRCGYTKGGYETATTLYNKYKGQGFTVLAFPCNQFAGQEPGTALEVKEFACTRFKADFPIMAKIDVNGSKAHPLYEFMKATIPGLFGTKAIKWNFTSFLIDRHGVPVERFSPGASVEDIEKKLLPLLGGARI”, for which the “soluble on expression in E. coli” value is given as “soluble”.

Regarding “MSLDLKEIVQAGAFDLHIHTTASDGEYSPTAIVKKAKEIGLRTIAITDHDTLDGIEEAVIAGKRHGINVIPAIELTTKYKGTNVDILGYNVKASEKLQAILVQLKKHREGRAMQIIEKFNDIGFTITLDEVKQFSEDGVIARPHIAKAIVKKGYVLDYQTVFDEYLADGKPCAIDKMILTPEEGIKLIHEAGGKAILAHPVYLEDTLVRELLALDFDGIEVWHRNHDETDQEKYKMLATEFALIKTGGSDFHTDEHSLGQFGWKADEEGHHHHHH”, the “soluble on expression in E. coli” value is listed as “soluble”.

As for “PNIEFFTLKTPDGSELDSVQVTGEDEEKKPMGERKFIITCIARDQNFINWIKDLNYTAKNLGATAISFNYRGVDYSRGLVWTENNLVDDILAQVQRLISLGADPKNICLDGMCIGGAVATIAAAKLHEKG”, the “soluble on expression in E. coli” value is on record as “not soluble”.

As for “MGSDKIHHHHHHMALDGYTDQTMSRQAMRAELLDAETELRLAYAWRDQRDERALHRLITAYMRLAISMASKYRRYGAPMNDLIQEASLGLMKAADKFDPDRGVRFSTYAVWWIKASIQDYVMRNWSLVRTGSTSSQKALFFNMRRVQARLEREASQRGEALDAHQLREMVAHDVGVPLSDVEMMEGRLSGSDFSLNATQSADDEGREWIDALEDDSAQAAEVVEGSLDAARLRGWLVSAMQQLNARERFIVTERKLRDVPRTLESLGEELKLSKERVRQLEAAAFAKMRRSLEAQSREVHHFLL”, the “soluble on expression in E. coli” value is given as “not soluble”.

On to “HLGEHEVPGHLMDFVTTYSTNLAVPQRRDADDERVLAGKKLFYQANCVACHVPKYVTRRDAAQPEHRFQLIWPYTDMLLHDMGDGLADGVSEEQANGREWRTPPLWGIGLTRLVNPSATWLHDGRARTLLEAVLWHGGEAQAARDRVVAMSPGERADLIRFLESL”, for which the “soluble on expression in E. coli” value is on record as “not soluble”.

As to “MGSDKIHHHHHHMFGLIPKEEKFFAMFKDMAANIVTGGKLLKQMLDSYDDPQASQKKIKDVEHACDAITHDIIQKLNKSFVTPFDREDIYALAAALDDIVDLIDASAQRFIMYNVEKPTPEAKELAFLILQGCLAIEKAVSHLGEKFEHIAEHCVEVNALENEADRVCREAISRLFDEEKDPIQLIKWKEIYETLERATDKCEDAANILESVVVKNA”, the “soluble on expression in E. coli” value is listed as “not soluble”.

With “PVERMRMRPWLEEQINSNTIPGLKWLNKEKKIFQIPWMHAARHGWDVEKDAPLFRNWAIHTGKHQPGIDKPDPKTWKANFRCAMNSLPDIEEVKDRSIKKGNNAFRVYRMLP”, the “soluble on expression in E. coli” value is on record as “soluble”.

As to “MAHHHHHHMRFFKSDGTPYNSDMTDTLHGSEYVHRGGVEAIVEGVAAGQYAEHKPRAIMFVNKRPVEIIPQEENLLEVLEREGIRVPKFCYHPILSVAGNCRMCLVQVDGTQNLVVSCATVALPGMSIITDSRLVRDAREGNVELILINHPNDCPICEQATNCDLQNISMNYGTDIPRYKEDKRAVQDFYFDPQTRVVLNRCIHCTRCVRFLNEHAQDFNLGMIGRGGLSEISTFLDELEVKTDNNMPVSQLCPVGKLYLGDADENNAVADELDASEQAYAVATS”, the “soluble on expression in E. coli” value is listed as “soluble”.

Take “MGSDKIHHHHHHMLEIGFCTLEDQCPYLKDKRSRIEYKYIENCPKEINNELIKRGWRRFGRYFSRPICKDCDECLSLRILVNEYNFSRSERRVVNKNINTKVILRTPNLSNEHLFLYDKYHRFMEEKKNWKRYDLSFKQYYNLYVDGFMNFGYELAFYIEDKLVCVDLIDILEDGISSIYCFYDPDFSYFSLGKFSLLNEIQIAKKMNLDYIYLGYFVKKCQSLSYKADYTPNEILKGTKELFENEVLWEK”: the “soluble on expression in E. coli” value is “not soluble”.

Regarding “MKKFIGSVLTTTLILGGCSAMENESNKDTNTETKSVPEEMEASKYVGQGFQPPAEKDAIEFAKKHRKEFEKVGEQFFKDNFGLKVKATNVVGKDDGVEVYVHCEDHGIVFNASLPLYKDAIHQKGSMRSNDNGDDMSMMVGTVLSGFEYRAQKEKYDNLYKFFKENEKKYQYTGFTKEAINKTQNVGYQNEYFYITYLSRNLKEYRKYYEPLIHKNDKEFKEGMQQARKELDYTANTDAVSTLFSTKKNFTKDNTVDDVIELSNKLKEKPNMPQKSQVTIQLGKSSINTKKPFYDDINPIEGLEHHHHHH”, the “soluble on expression in E. coli” value was “not soluble”.

Turning to “MSLFITDKRVKESATALNPSMFQGLYLQDQMLKDPTYLPIYGSSELSRLDEFHPSNYFQVNNEGFTPYLVGKGGSQSLIHSLNFAAHMDQLKGKKIVFIVSPQWFIKRGSDEQHFAPNYSALQGLDLAFNDQIDPEIKKKMMKRMLRFKAVQNDAILSELYKAMVNGQTWKVNALKPAAKVYYSMLEKKDLYYSTTESSGPKRYISQSVKDKSWSELNKLADQSGKRHSGSNDFHIDNPVYKKLKPKVPKLKGKNKGRSYAVSPEYGDFEMMLDILKDAGAEPMFVTIPVNGKWYDYTGFPKKGRTDYYKKVNKQIRAKGFQVADFSGHEYDPYFMKDTIHIGWKGWVYVDKAIDEFYKTGKVTSSEGHHHHHH”, the “soluble on expression in E. coli” value is recorded as “not soluble”.

Turning to “MIDFNQLDDLARRLSDLVPPGLRQSREELQSTFKGALQAGLGKLDLVTREEFDVQRAVLLRTREKLDALEQTVAALEARSGNAPPTSPTP”, the “soluble on expression in E. coli” value was “not soluble”.

Consider “MSLKQQLIKNGLVLDMKGNHKPQAKDILIEGKWIRDIRPNIEPEVDTEIIDAEGKIVMPGFVDTHRHVWESLLRHIGTDWTLLTYLDNLYYGNLGSMLTPEDSYIANLWGALEAIDAGVTTVLDWSMLETPEHADASIKGLQAAGIRAVFAHGTPGYETYWSRDSEVRHPKDAKRVKKEYFQSDDQLLTMALAIRGPEFSSWEVTLDDIQLARELDAIASMHIGFGTWGPHDRSITRMREAGLLDSDLNLVHVNRIQPHEYEYIAESGASLSVTPEVEMMMGHGYPATGYLHKHRGLVTLGVDVVVATAGDMFAQMKFALQAERAWQNEQRLDRGEMPEQLKMTTNDVLTFATLNGAKALKLDDKIGTLDVGKEADLLLINPSSFNLFPLNHEPVGAVVQSARPENVDSVFIAGRPVKRHGKLLFDDLDGLRNKVLAASEAVFHRQAAKNEGHHHHHH”, for which the “soluble on expression in E. coli” value is reported as “soluble”.

As to “MKESAASVAVRPQLREVFERFPADAHRTIEDEIHEMMKCYAFDDAIFLAELHYETDKSNNSESLLLYADCLYRANKKEECYGLLSSVKLSGARLFYLLARVSYDLNKIDDCRGALFEHDDGVIRKDILEEPRVASHANLLHAQMLCDESYMDLALESCQKSLDENILLWSAIITYLRFGGHDLAHTFEKHHRKSNGLYLDSPASSLKSETPSPNVPGPSSSSAASTAEPSRLESSVRRSTRGTIASANRETRNTTSNITPRQSTPGSTPSRINPTAPRKSSRISEMTTRRTESSVTGSRSSLFTEPERPHTRATHSSRNRANAALNSDTENSNASNTRTRSGIASVTRGSSSSQRTNPVRTSIRIADAAAAANKTAKTLSQRRRNEKQPLVSRNSNLARSLSGSTNSVASTASERPSEDEVSQINPPLPSVASSLNNDEPMDIVDGVYDPEYKKLFDVYQHIALIEESISTYNWRSADALFAKLDRDIILNTSMVRLQLGRACFEQSEYRECRNILDDLHKRRKWKVDGTELLSTSMWHLQDTHALSALSQILTTESRERPQSWCAAGNCFSLQRQHTQAIECMERAIQLDKRFAYAYTLLGHELIVQDELDKAAGSFRSALLLSPRDYRAWYGLGLVHLKKEQNLTALTNIQKAVNINPTNRAMLCTLSQIEQQRGQIDTALVLIDRALTLNPLDVACRFNRSRLLFEANRNEECLVELDKLKASSPDEAFIFHLLARVHRRMGNTHLALLNYSWAAELDPRGEQNITDSNVINREEYEDDEYGSPV”, the “soluble on expression in E. coli” value was “not soluble”.

As to “MGSDKIHHHHHHMSEKTLLELPKKFMEALMAPFIGREEEAKVITLALLSKEHVILIGEPGTAKSALARRAAELLNAKFFMYLLTKYTEPAELFGALDINALKDGQYKRITKDRLPESQIAFLDEIFNANSAILNALLSLLNERVIYDGYNVIKVPLRTLISASNRVPDEPELEALYDRLLLRHYARPVGEELWKQLLDATWEIEFTNRWAVKEPIMNIEHLDKLYSYLSQVDLSGVKNKLLKLYAMLEEKGIHLSDRRKGKVLKVVSAHAILNSRLKATEEDLIVLKYIAPREIDDFEKVAALLSEELKTPIKYMKELNEIYNNIKEAAKYVEAANESDPRLIELIRSLRATRDRIVALGKESGDEKVEEFSKEVLSEIDKLIEKVARKLGIYP”, the “soluble on expression in E. coli” value is on record as “not soluble”.

Take “MEISNRLKSISEVMDRCEIAADIGTDHAYLPIYLIKNNLCKRFIASDVNAGPLKKAINNINKYKLEDKIECRLGSGLNVLKLEEVDVVVIAGMGGNLIRDIIEERLDIFKKLKYAVLQPVQNPEILREYLIKRGFNIIEEQLCIDESKYYEIIKVCYDSKIEDKDDVYYEIGDKLIDMKHPLLKEYINYKIRKYDKIYKNISEESLNALSRKNELSIKIRKLKELLSCL”: the “soluble on expression in E. coli” value was “not soluble”.

With “MPKFVVIELNDDAATIDLLSYCVKKNFERVSLLTRLEDHPYLRDDQDVVQDDTQSQGTDGMLLQLNDEERQRLMKMISTPGPQTLSMERIQMAPGQGQHILQQHQIPSTSSYTNNSFIYIKSDPQYKDEPQQQSNQFDATVNSVAHGQAGLSTLEMFACNGSPNGGDVLRRKTPSRKAEDSIKATCKVCGHDVMYSPQRTWNLMRHVWIMHQSSKPNQCSICGYSHIKPYVRKHIESQHKHDSNATIIDLKSPELEAEWSQLLDQCFGVTYRKWKHHKEDTQHTGGLLFDDDELRG”, the “soluble on expression in E. coli” value was “soluble”.

Turning to “MADEIFKAFIGGLPYDSIATDIETILKHCKFTDEELKKFDIHLVHDRDSGSFKGFAYVTFENEQQMNTAISGLNGADFGNRVLKVNRAQQRDRSDRGGGRGGRGGNFGDRGGRGRGAGGFRRGGEGGRFNEGERRGGFGGGGHRGGYRQRRESEEQHKAEETSDPSAPPAERPRLNLKPRTTDAAEIEARKKQEEEETKRRQEKLFQ”, the “soluble on expression in E. coli” value is “not soluble”.

Source of the values: the DeepSol protein solubility set.
